Laboratory results taken from publication PMC6471090.

How the values were obtained:
[1] = target: wild-type green fluorescent protein (GFP) (Aequorea victoria) [GFP: P42212]; experiment: single-molecule photobleaching step counting and fluorescence intensity distribution (TIRFM); purified protein, 0.17 μg/mL solution, single spots imaged on the coverslip surface; 473-nm laser; self-association (monomer to dimer)
[2] = target: wild-type green fluorescent protein (GFP) (Aequorea victoria) [GFP: P42212]; experiment: single-molecule photobleaching step counting and fluorescence intensity distribution (TIRFM); purified protein, 0.57 μg/mL solution, single spots imaged on the coverslip surface; 473-nm laser; self-association (monomer to dimer)

wild-type green fluorescent protein (GFP) (from UniProt P42212 1-238) (natural protein)
percent of spots with one-step photobleaching (monomers) [1]: 96.5%
percent of spots with two-step photobleaching (dimers) [1]: 3.5%
stoichiometry N [1]: 2
percent of spots in the major intensity population (monomers) [2]: 97%
percent of spots with two-step photobleaching (dimers) [2]: 8.6%
